Each sequence was assayed on MS2 coat protein (assay: apparent KD of MS2 coat protein; higher = weaker reporter binding). Settings: Eterna round: R107; input ligand: theophylline 20 uM.
Method in brief: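 Apparent KD stands for the median, per design, of fits to normalised cluster binding curves. The curves came from titrating on-chip-transcribed RNA switches on Illumina sequencing clusters with SNAP-549-labelled MS2 coat protein, twofold from 0.7 or 1.5 nM to 3 µM. Buffer was 100 mM Tris-HCl pH 7.5, 80 mM KCl, 4 mM MgCl2, without or with constant ligand.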

Row | Sequence | apparent KD of MS2 coat protein [nM]
1 | AGCGACAUGCGUGAUACCAGCUACAUGAGGAUCACCCAUGUCAGUAGGAAACUACUGUGUAGCCCUUGGCAGCACAGUGCAUGUC [Exclusion - Theophylline B (Freestyle 26)] | 31.9
2 | UUUUCAGGGUCGGCCGCCACUGGUAUGGCGAGUCCUCGAACAAACAUGAGGAUCACCCAUGUGAACAGGACCGGGACAGCAUGGG [Exclusion Tryptophan B GF 21] | 538
3 | AUAAAUAAUAAAUAAAAUAAAGUGGGUGAACGAGGACCGGUACGGCCGCCACUCGGACAUGAGGAUCACCCAUGUCCAUGUGAAA [AstrosExyTry#1] | 22.4
4 | UUUUAACAUGAGGAUCACCCAUGUAAUGAUACCAGAGACGAAAGUCUCCCUUGGCAGCAUAUAUCAUUACUCAUAGGAAACUAUG [Theophylline A 6] | 23.5
5 | GAUAUAUAACGAAGGAGCGGCCCUUGAUCCUCAUGAGACAUGAGGAUCACCCAUGUCUCGGGCCAGGUAGGUCGCGUUAUAUAUC [Astros-omei-mod] | 31.4
6 | ACACGGGCAUGAGGAUCACCCAUGUAAUAACGAGGACCGGUACGGCCGCCACUCGUGCACCGUGACCUGUACGAAAAGUGCAGGA | 26.5
7 | ACUGACUUUACGGCCGCCACUCAUUGGCACGUGUCAUGUCAACAUGAGGAUCACCCAUGUAUGAUGAGGACCGGGUAAGGGCUGC [theeternabot_exclusion_MS2_Trp_B_2] | 13
8 | UGCUACAUGAGGAUCACCCAUGUGGGUGAUACCAGCAUUCGUUAAUGCCCUUGGCAGCGCAGCCGAACCAUUCAUUCGGCAGAUC [Laxeor] | 214
9 | AGCCUCAUACAUGAGGAACACCCAUGUGAUACCAGUCAGGAAACUGACCCUUGGCAGCGCAUGAGGAUCACCCAUGCGCGAGGCA [Omei Theo A Exc A v3] | 78.2
10 | UGACAUUGCUCAGAUACCAGACGUGAGGAUCACCCACGUGCCAACAAGUACAAAAUAAAUGUCCCUUGGCAGCUGAGCAAUGUCU [TheoBX 26 #MS2Left #AlternativeMS2 #Theo22] | 12.7
11 | UGAUGGAACGGAAGGAGCGUGUAAGAACAAGAACAUGAGGAUCACCCAUGUAUUAAUUUAACACAGGUAGGUCGCCGAGAUAUUG [11.E] | 23.1
12 | UCGGGCAGAGCGGCCGCCACUGUAAGGCGUGCGGAUGACGGAACAUGAGGAUCACCCAUGUUGUUUAGGACCGGGCUUGCGGCGA [nynullin] | 27.2
13 | AGAUGAGUCACGGCCGCCACUCUUAUCAGGAUCACCCAUGGUUAACAUGAGGAUCACCCAUGUCUGAGGACCGGGUGAUGAGCAU [XTryp B #2] | 31.4
14 | AUAACAUGAGGAUCACCCAUGUAAGCUGAAGGAGCGCUGGAAACAGCAGGUAGGUCGCAGCAUGUUUCCACAUGGGUAGGAAACU [(M1)-(M2)-(Arg1)-(Arg2)-(A)'-(M)'-(A)''_Design8] | 86.2
15 | CCUGCGUUUCUUCUUUCGCAGGAGGAUGAUACCAGUAGGGAAACCUACCCUUGGCAGCAUGGGACAUGAGGAUCACCCAUGUGGA [SSThA NP+V+V2 #1] | 522
16 | CGGCCCUCACACGAGGAUCACCCGUGUGAUACCAGCCUGGAAACAGGCCCUUGGCAGCACAAGGUCAUCAAAGAUGACCAAGCCG [TheoAX 22 #SwitchBubble] | 18
17 | GAUGAUAUUGCAGAUACCAGACACAUGAGGAUCACCCAUGUCGUUGGGUCGCUGGGUCGUGUCCCUUGGCAGCUGCGAUAUCAUC [#04 Exclusion-TheophyllineB] | 52.6
18 | CGCAACCCACAUGAGGAUCACCCAUGUGAAGGAGCGGCGAAUAAGCCAGGUAGGUCGCGCAUGAAUAAAUCAUGUAGGAAGCGAA [XArg-A 7 V1&2] | 27.8
19 | GGCUCCAGCCGAAGGAGCGCUAGAAGGUGACAUGAGGAUCACCCAUGUGUGUGAUGUGGCUAGCAGGUAGGUCGCGGAGGAGCUU [Exclusion - Arginine B (Freestyle 19)] | 108
20 | CAAGAACAGCCAGAUCUUGGCAGCUGAGAAGGAGCGCGGGAAGCCGCAGGUAGGUCGCUCAGGAAUACAUGAGGAUCACCCAUGU [Beoror] | 24.6

Same assay, conditions: Eterna round: R107; input ligand: theophylline 2 mM

Row | Sequence | apparent KD of MS2 coat protein [nM]
21 | UGACAUUGCUCAGAUACCAGACAUGAGCAUCAGCCAUGUGCCAACAAGUACAAAAUAAAAGUCCCUUGGCAGCUGAGCAAUGUCU [TheoBX 21 #MS2Left #AlternativeMS2 #Theo2] | 29.1
22 | AAUUCCGGGUCGGCCGCCACUGAUAUGGCGAGUCCUCGAACUUACAUGAGGAUCACCCAUGUAAACAGGACCGGGACCGCAUGGG [Exclusion Tryptophan B GF 23] | 20.4
23 | UCGUUUUAGUCGGCCGCCACUGUAUGCAUGUUUAACAUGAGGAUCACCCAUGUCCCGUUCUAUUUCAGGACCGGGACGUAAUCGA [JR_SSTryptoB_Sub008] | 619
24 | ACAUGAGGAUCACCCAUGUACAUCACCCGACGAGGACCGGUACGGCCGCCACUCGGGUAUAUAUAUACAUCGGGUGAUUUUACGU [#22 Tryptophan A Same State] | 64.1
25 | UGUAUGGACUGAAGGAGCGGGUUGAUAACCUGAGGAUCACCCAGGUAAAAGGCGAAAGCCACCCAGGUAGGUCGCAGUCCAUACU | 19.7
26 | UCGCCAUUGACGGCCGCCACUCAAUGGUCUUCUCUGAACAUAAUUAACAUGAGGAUCACCCAUGUGAGGACCGGGUCGGUUAGAC [theeternabot_exclusion_MS2_Trp_B_24] | 20.4
27 | UAAAGUAGGUCCAAUAAAACUACAUGUGAAGGAGCGCGCGAAAGCGCAGGUAGGUCGCACAUGAGGAUCACCCAUGUCCUACAAU [MAT - Exclusion Arginine A - Mod of Eli - D17] | 68.2
28 | GGACUAACCUGAAGGAGCGACACGCACAAAGUGCAAAUUCCUCCACACGAGGAUCACCCGUGUCAGGUAGGUCGCAGGUUAGUCG [ArgBX 28] | 23.7
29 | GGAGUCGGCACGGCCGCCACUGCGGUGGUGUGACAUGAGGAUCACCCAUGUUGUCAUGCGGCCCUUAGGACCGGGUGGCGGUUCC [#1 Exclusion - Tryptophan B Attempt #22 (HarryS)] | 82.6
30 | ACAUGAGGAUCACCCAUGUAUGAUGUUCCUCGAGGACCGGUACGGCCGCCACUCGAACGAGUGGCGCGCGAGCGCGCGCUCGCGC [aVa] | 17.3
31 | UUAAAGGCACCUCAUGGGACUAUAAACCCGCGAGGACCGGUACGGCCGCCACUCGAAUAUCAACAUGAGGAUCACCCAUGUGGUU [theeternabot_exclusion_MS2_Trp_A_6] | 29.6
32 | AAUUAUCAGUCGGCCGCCACUGACACAUGAGGAUCACCCAUGUAACUUGGGAUAAAUUUAAUAAACAGGACCGGGACAAAGGCUA [JR_ExcTryptoB_Sub011] | 49.9
33 | AACAUGAGGAUCACCCAUGUGUCCUCGAAACGAGGACCGGUACGGCCGCCACUCGAAUAAGCUGUUGACGAAAAGUCAGCAGCAA [Mat - Exclusion - Trytophan A - D19] | 314
34 | AGCGACAUGCGUGAUACCAGCUACAUGAGGAUCACCCAUGUCAGUAGGAAACUACUGUGUAGCCCUUGGCAGCACAGUGCAUGUC [Exclusion - Theophylline B (Freestyle 26)] | 30.2
35 | UUUUCAGGGUCGGCCGCCACUGGUAUGGCGAGUCCUCGAACAAACAUGAGGAUCACCCAUGUGAACAGGACCGGGACAGCAUGGG [Exclusion Tryptophan B GF 21] | 645
36 | AUAAAUAAUAAAUAAAAUAAAGUGGGUGAACGAGGACCGGUACGGCCGCCACUCGGACAUGAGGAUCACCCAUGUCCAUGUGAAA [AstrosExyTry#1] | 19.2
37 | GAUAUAUAACGAAGGAGCGGCCCUUGAUCCUCAUGAGACAUGAGGAUCACCCAUGUCUCGGGCCAGGUAGGUCGCGUUAUAUAUC [Astros-omei-mod] | 27.9
38 | ACACGGGCAUGAGGAUCACCCAUGUAAUAACGAGGACCGGUACGGCCGCCACUCGUGCACCGUGACCUGUACGAAAAGUGCAGGA | 29.5
39 | ACUGACUUUACGGCCGCCACUCAUUGGCACGUGUCAUGUCAACAUGAGGAUCACCCAUGUAUGAUGAGGACCGGGUAAGGGCUGC [theeternabot_exclusion_MS2_Trp_B_2] | 11

Reference: the supplement of paper PMC9170038
